B1: dT100 (ssDNA)
DNA: TTTTTTTTTTTTTTTTTTTTTTTTTTTTTTTTTTTTTTTTTTTTTTTTTTTTTTTTTTTTTTTTTTTTTTTTTTTTTTTTTTTTTTTTTTTTTTTTTTTT

The binders below were run against T1, DprA (DrDprA) (Deinococcus radiodurans R1 ATCC 13939, UniProt Q9RY31 1-370) (assay: fluorescence anisotropy; 2.5 mM Mg2+; apparent Kd; 25 mM NaCl, 20 mM Tris pH 7.5, 2.5 mM MgCl2, 2.5% (v/v) glycerol, 25 nM 5'-fluorescein ssDNA, 20 C; 35-mers of varying GC content (Fig. 5B) also tested, affinity rises with GC, but number, sequences and values not in the material). Conditions: protein: recombinant; tags: C-terminal His6; chain copies: 2; label: 5'-fluorescein.
T1 sequence: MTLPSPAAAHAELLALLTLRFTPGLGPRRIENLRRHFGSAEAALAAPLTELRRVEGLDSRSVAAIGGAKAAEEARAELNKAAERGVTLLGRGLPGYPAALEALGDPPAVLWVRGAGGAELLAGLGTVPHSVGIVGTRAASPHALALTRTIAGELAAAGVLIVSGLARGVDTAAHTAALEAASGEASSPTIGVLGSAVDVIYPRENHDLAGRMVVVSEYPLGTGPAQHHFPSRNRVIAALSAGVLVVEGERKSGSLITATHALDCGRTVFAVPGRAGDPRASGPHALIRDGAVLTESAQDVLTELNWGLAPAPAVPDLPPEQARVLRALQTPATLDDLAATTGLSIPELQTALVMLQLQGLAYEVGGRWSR
In the case of B1, the Kd is reported as 1000 nM. TTTTTTTTTTTTTTTTTTTT (ssDNA) [dT20] gave a Kd of 7500 nM. TTTTTTTTTTTTTTTTTTTTTTTTTTTTTTTTTTTTTTTTTTTTTTTTTT (ssDNA) [dT50] gave a Kd of 1200 nM.

Reference: PMC7314969, “Natural Transformation in Deinococcus radiodurans: A Genetic Analysis Reveals the Major Roles of DprA, DdrB, RecA, RecF, and RecO Proteins”
